Here are results for four substances from patent US20190300576A1.

Test [1] has as its target SUMO-C-CA (HIV-1). Nature of the test: HPSEC affinity selection, 50*7.8mm BIO-SEC-3 column, peptide quantified by LC-MS in the protein fraction. On the technique in general: Size exclusion chromatography separates by hydrodynamic size, large species first.
Test [2] concerns the target SUMO-C-CA (HIV-1). In words: BLI, peptide on streptavidin sensors, global fit. In general terms: BLI is a label-free optical method that tracks binding on a fibre tip over time.
Test [3] deals with SUMO-C-CA (HIV-1). In words: BLI, C-terminally biotinylated peptide immobilized.
Test [4] deals with SUMO-C-CA (HIV-1). Nature of the test: BLI, biotinylated peptide immobilized on streptavidin sensors, SUMO-C-CA in solution.
Test [5] deals with Trypsin from bovine pancreas (bovine) (UniProt P00760). Nature of the test: Trypsin inhibition assay.

What is called Kd is the equilibrium constant for the complex coming apart. Low values mean higher affinity, high ones lower affinity.

Trypsin from bovine pancreas (bovine), sequence (P00760 24-246): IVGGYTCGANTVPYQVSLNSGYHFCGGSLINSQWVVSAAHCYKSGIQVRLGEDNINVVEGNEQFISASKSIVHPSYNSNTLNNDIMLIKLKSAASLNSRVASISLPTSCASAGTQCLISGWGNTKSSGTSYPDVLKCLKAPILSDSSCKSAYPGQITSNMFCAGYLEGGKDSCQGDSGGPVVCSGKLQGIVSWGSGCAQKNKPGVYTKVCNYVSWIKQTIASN

Take CAI (37) (peptide): in the test with SUMO-C-CA (HIV-1) [1], the Selection yield (%) is 0.5%. Take peptide 37a (biotinylated CAI): the Kd was 2.2 µM with SUMO-C-CA (HIV-1) [2], 2.3 µM with SUMO-C-CA (HIV-1) [3] and 2.3 µM in the test with SUMO-C-CA (HIV-1) [4]. Consider “EETI-II-diol (59) (from UniProt P12071 1-28) (peptide)”, for which the Kd in test [5] is 0.00093 µM. Take peptide NYAD (37a-M): the Kd worked out at 5 µM with SUMO-C-CA (HIV-1) [2] and 5.8 µM with SUMO-C-CA (HIV-1) [4].
